Measurements from publication PMC9482650, “Quantitative fragmentomics allow affinity mapping of interactomes” (Nature Communications, 2022).

T1: HTRA3, P83110
T1 sequence (P83110 354-453, limits assumed, looked up): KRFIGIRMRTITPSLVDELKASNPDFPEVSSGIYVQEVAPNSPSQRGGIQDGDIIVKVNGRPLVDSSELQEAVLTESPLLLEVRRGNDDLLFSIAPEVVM

T2: LRRC7, Q96NW7
T2 sequence (Q96NW7 1440-1537, limits assumed, looked up): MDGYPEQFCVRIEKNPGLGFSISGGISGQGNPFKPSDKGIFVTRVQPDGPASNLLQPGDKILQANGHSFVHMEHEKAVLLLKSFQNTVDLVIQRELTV

T3: NHERF3_3, Q5T2W1
T3 sequence (Q5T2W1 238-333, limits assumed, looked up): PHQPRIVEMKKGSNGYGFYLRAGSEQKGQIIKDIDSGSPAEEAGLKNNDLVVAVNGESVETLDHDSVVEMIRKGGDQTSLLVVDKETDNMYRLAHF

T4: SNTA1, Q13424
T4 sequence (Q13424 82-180, limits assumed, looked up): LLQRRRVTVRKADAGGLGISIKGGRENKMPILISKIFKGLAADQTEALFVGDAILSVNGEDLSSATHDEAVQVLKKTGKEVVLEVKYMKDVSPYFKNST

T5: RHPN1, Q8TCX5
T5 sequence (Q8TCX5 508-602, limits assumed, looked up): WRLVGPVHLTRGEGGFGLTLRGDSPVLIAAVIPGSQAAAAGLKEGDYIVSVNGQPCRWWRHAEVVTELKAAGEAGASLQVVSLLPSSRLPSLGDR

T6: GRIP1_7, Q9Y3R0
T6 sequence (Q9Y3R0 999-1096, limits assumed, looked up): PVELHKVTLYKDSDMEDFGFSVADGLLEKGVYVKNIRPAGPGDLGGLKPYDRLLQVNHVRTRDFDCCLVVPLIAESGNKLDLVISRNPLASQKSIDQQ

T7: CARD11, Q9BXL7
T7 sequence (Q9BXL7 662-765, limits assumed, looked up): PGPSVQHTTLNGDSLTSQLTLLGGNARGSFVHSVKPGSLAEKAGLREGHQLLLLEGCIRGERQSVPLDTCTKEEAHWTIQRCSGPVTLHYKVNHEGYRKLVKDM

T8: SNTB1, Q13884
T8 sequence (Q13884 107-205, limits assumed, looked up): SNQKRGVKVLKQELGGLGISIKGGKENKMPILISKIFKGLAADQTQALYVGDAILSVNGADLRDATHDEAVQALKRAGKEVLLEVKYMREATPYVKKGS

T9: GRIP1_4, Q9Y3R0
T9 sequence (Q9Y3R0 467-571, limits assumed, looked up): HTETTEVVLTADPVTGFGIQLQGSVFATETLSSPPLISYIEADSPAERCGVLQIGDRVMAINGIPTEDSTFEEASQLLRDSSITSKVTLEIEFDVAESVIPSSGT

T10: TIAM2, Q8IVF5
T10 sequence (Q8IVF5 885-986, limits assumed, looked up): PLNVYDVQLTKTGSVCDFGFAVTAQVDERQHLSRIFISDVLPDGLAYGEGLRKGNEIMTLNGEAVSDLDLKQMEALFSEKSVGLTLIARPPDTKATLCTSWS

T11: DFNB31_3, Q9P202
T11 sequence (Q9P202 811-907, limits assumed, looked up): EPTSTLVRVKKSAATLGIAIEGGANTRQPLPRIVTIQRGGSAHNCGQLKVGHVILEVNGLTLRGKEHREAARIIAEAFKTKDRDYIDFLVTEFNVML


What follows are binders tested against T1, HTRA3, P83110 (assay: holdup assay). Conditions: plain residues with an end cap or a label only (N-terminal biotin on a linker: ado-ado).
Parameters: key: below the threshold = too weak to quantify, mostly under pKd 3.1 to 4
With PTPDLPQTRV [KLHDC7A, Q5VTJ3] the pKd was “below the threshold”. In the case of NISYRRESAI [KCNJ4, P48050], the pKd is reported as “below the threshold”.

What follows are binders tested against GRIP2_6, Q9C0E4 (assay: holdup assay). Conditions: plain residues with an end cap or a label only (N-terminal biotin on a linker: ado-ado).
Chain of GRIP2_6, Q9C0E4 (Q9C0E4 648-740): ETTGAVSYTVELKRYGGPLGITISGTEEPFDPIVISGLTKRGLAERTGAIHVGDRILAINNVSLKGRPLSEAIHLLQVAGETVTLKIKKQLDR
Parameters: key: below the threshold = too weak to quantify, mostly under pKd 3.1 to 4
In the case of PTPDLPQTRV [KLHDC7A, Q5VTJ3], the pKd is reported as “below the threshold”. In the case of NISYRRESAI [KCNJ4, P48050], the pKd is reported as “below the threshold”.

What follows are binders tested against T2, LRRC7, Q96NW7 (assay: holdup assay). Conditions: plain residues with an end cap or a label only (N-terminal biotin on a linker: ado-ado).
Parameters: key: below the threshold = too weak to quantify, mostly under pKd 3.1 to 4
With PTPDLPQTRV [KLHDC7A, Q5VTJ3] the pKd was “below the threshold”. In the case of NISYRRESAI [KCNJ4, P48050], the pKd is reported as “below the threshold”.

The binders below were run against MAGI3_2, Q5TCQ9 (assay: holdup assay). Conditions: plain residues with an end cap or a label only (N-terminal biotin on a linker: ado-ado).
Chain of MAGI3_2, Q5TCQ9 (Q5TCQ9 398-503): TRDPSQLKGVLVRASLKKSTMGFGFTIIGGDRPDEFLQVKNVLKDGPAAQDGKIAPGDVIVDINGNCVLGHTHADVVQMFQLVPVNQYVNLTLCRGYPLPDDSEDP
Parameters: key: below the threshold = too weak to quantify, mostly under pKd 3.1 to 4
In the case of PTPDLPQTRV [KLHDC7A, Q5VTJ3], the pKd is reported as 3.79. With NISYRRESAI [KCNJ4, P48050] the pKd was 4.9.

The binders below were run against Inadl_10, Q8NI35 (assay: holdup assay). Conditions: plain residues with an end cap or a label only (N-terminal biotin on a linker: ado-ado).
Chain of Inadl_10, Q8NI35 (Q8NI35 1673-1763): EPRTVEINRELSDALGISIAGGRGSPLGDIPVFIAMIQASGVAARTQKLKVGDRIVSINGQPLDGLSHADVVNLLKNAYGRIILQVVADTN
Parameters: key: below the threshold = too weak to quantify, mostly under pKd 3.1 to 4
For PTPDLPQTRV [KLHDC7A, Q5VTJ3], the pKd was “below the threshold”. For NISYRRESAI [KCNJ4, P48050], the pKd was “below the threshold”.

The binders below were run against T3, NHERF3_3, Q5T2W1 (assay: holdup assay). Conditions: plain residues with an end cap or a label only (N-terminal biotin on a linker: ado-ado).
Parameters: key: below the threshold = too weak to quantify, mostly under pKd 3.1 to 4
In the case of PTPDLPQTRV [KLHDC7A, Q5VTJ3], the pKd is reported as “below the threshold”. NISYRRESAI [KCNJ4, P48050] was tested, and the pKd was “below the threshold”.

What follows are binders tested against T4, SNTA1, Q13424 (assay: holdup assay). Conditions: plain residues with an end cap or a label only (N-terminal biotin on a linker: ado-ado).
Parameters: key: below the threshold = too weak to quantify, mostly under pKd 3.1 to 4
For PTPDLPQTRV [KLHDC7A, Q5VTJ3], the pKd was 4.81. In the case of NISYRRESAI [KCNJ4, P48050], the pKd is reported as “below the threshold”.

These binders were tested against T5, RHPN1, Q8TCX5 (assay: holdup assay). Conditions: plain residues with an end cap or a label only (N-terminal biotin on a linker: ado-ado).
Parameters: key: below the threshold = too weak to quantify, mostly under pKd 3.1 to 4
In the case of PTPDLPQTRV [KLHDC7A, Q5VTJ3], the pKd is reported as 4.32. With NISYRRESAI [KCNJ4, P48050] the pKd was “below the threshold”.

The binders below were run against T6, GRIP1_7, Q9Y3R0 (assay: holdup assay). Conditions: plain residues with an end cap or a label only (N-terminal biotin on a linker: ado-ado).
Parameters: key: below the threshold = too weak to quantify, mostly under pKd 3.1 to 4
For PTPDLPQTRV [KLHDC7A, Q5VTJ3], the pKd was “below the threshold”. NISYRRESAI [KCNJ4, P48050] was tested, and the pKd was “below the threshold”.

Each binder was assayed against T7, CARD11, Q9BXL7 (assay: holdup assay). Conditions: plain residues with an end cap or a label only (N-terminal biotin on a linker: ado-ado).
Parameters: key: below the threshold = too weak to quantify, mostly under pKd 3.1 to 4
For PTPDLPQTRV [KLHDC7A, Q5VTJ3], the pKd was “below the threshold”. NISYRRESAI [KCNJ4, P48050] was tested, and the pKd was “below the threshold”.

What follows are binders tested against DLG1_3, Q12959 (assay: holdup assay). Conditions: plain residues with an end cap or a label only (N-terminal biotin on a linker: ado-ado).
Chain of DLG1_3, Q12959 (Q12959 457-571): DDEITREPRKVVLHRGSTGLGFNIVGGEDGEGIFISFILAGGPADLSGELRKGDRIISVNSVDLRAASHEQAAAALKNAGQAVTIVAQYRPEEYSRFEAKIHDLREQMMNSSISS
Parameters: key: below the threshold = too weak to quantify, mostly under pKd 3.1 to 4
In the case of PTPDLPQTRV [KLHDC7A, Q5VTJ3], the pKd is reported as “below the threshold”. NISYRRESAI [KCNJ4, P48050] was tested, and the pKd was 3.91.

Each binder was assayed against T8, SNTB1, Q13884 (assay: holdup assay). Conditions: plain residues with an end cap or a label only (N-terminal biotin on a linker: ado-ado).
Parameters: key: below the threshold = too weak to quantify, mostly under pKd 3.1 to 4
PTPDLPQTRV [KLHDC7A, Q5VTJ3] gave a pKd of 4.95. For NISYRRESAI [KCNJ4, P48050], the pKd was 4.03.

The binders below were run against GRASP, Q7Z6J2 (assay: holdup assay). Conditions: plain residues with an end cap or a label only (N-terminal biotin on a linker: ado-ado).
Chain of GRASP, Q7Z6J2 (Q7Z6J2 96-193): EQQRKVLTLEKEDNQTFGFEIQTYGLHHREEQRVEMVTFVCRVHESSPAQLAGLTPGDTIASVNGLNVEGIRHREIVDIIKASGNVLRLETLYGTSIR
Parameters: key: below the threshold = too weak to quantify, mostly under pKd 3.1 to 4
With PTPDLPQTRV [KLHDC7A, Q5VTJ3] the pKd was 3.64. With NISYRRESAI [KCNJ4, P48050] the pKd was “below the threshold”.

The binders below were run against Inadl_6, Q8NI35 (assay: holdup assay). Conditions: plain residues with an end cap or a label only (N-terminal biotin on a linker: ado-ado).
Chain of Inadl_6, Q8NI35 (Q8NI35 1058-1167): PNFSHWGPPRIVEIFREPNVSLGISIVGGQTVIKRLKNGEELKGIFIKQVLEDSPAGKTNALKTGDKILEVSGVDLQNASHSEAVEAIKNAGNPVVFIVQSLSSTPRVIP
Parameters: key: below the threshold = too weak to quantify, mostly under pKd 3.1 to 4
PTPDLPQTRV [KLHDC7A, Q5VTJ3] was tested, and the pKd was “below the threshold”. With NISYRRESAI [KCNJ4, P48050] the pKd was “below the threshold”.

The binders below were run against IL16_3, Q14005 (assay: holdup assay). Conditions: plain residues with an end cap or a label only (N-terminal biotin on a linker: ado-ado).
Chain of IL16_3, Q14005 (Q14005 1107-1207): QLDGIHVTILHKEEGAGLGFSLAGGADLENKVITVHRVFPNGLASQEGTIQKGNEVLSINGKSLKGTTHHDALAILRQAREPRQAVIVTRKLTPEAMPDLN
Parameters: key: below the threshold = too weak to quantify, mostly under pKd 3.1 to 4
With PTPDLPQTRV [KLHDC7A, Q5VTJ3] the pKd was “below the threshold”. NISYRRESAI [KCNJ4, P48050] was tested, and the pKd was “below the threshold”.

What follows are binders tested against GOPC, Q9HD26 (assay: holdup assay). Conditions: plain residues with an end cap or a label only (N-terminal biotin on a linker: ado-ado).
Parameters: key: below the threshold = too weak to quantify, mostly under pKd 3.1 to 4
Binder PTPDLPQTRV [KLHDC7A, Q5VTJ3] has a pKd of 4.89. For NISYRRESAI [KCNJ4, P48050], the pKd was “below the threshold”.

What follows are binders tested against Inadl_2, Q8NI35 (assay: holdup assay). Conditions: plain residues with an end cap or a label only (N-terminal biotin on a linker: ado-ado).
Chain of Inadl_2, Q8NI35 (Q8NI35 238-335): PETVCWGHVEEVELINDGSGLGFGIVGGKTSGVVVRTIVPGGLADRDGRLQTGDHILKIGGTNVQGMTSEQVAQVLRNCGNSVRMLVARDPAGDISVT
Parameters: key: below the threshold = too weak to quantify, mostly under pKd 3.1 to 4
PTPDLPQTRV [KLHDC7A, Q5VTJ3] was tested, and the pKd was “below the threshold”. For NISYRRESAI [KCNJ4, P48050], the pKd was “below the threshold”.

What follows are binders tested against FRMPD2_3, Q68DX3 (assay: holdup assay). Conditions: plain residues with an end cap or a label only (N-terminal biotin on a linker: ado-ado).
Chain of FRMPD2_3, Q68DX3 (Q68DX3 1073-1166): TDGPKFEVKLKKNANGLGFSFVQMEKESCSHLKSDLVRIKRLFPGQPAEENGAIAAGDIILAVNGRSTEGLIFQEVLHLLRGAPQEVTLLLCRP
Parameters: key: below the threshold = too weak to quantify, mostly under pKd 3.1 to 4
With PTPDLPQTRV [KLHDC7A, Q5VTJ3] the pKd was “below the threshold”. With NISYRRESAI [KCNJ4, P48050] the pKd was “below the threshold”.

Each binder was assayed against GORASP1, Q9BQQ3 (assay: holdup assay). Conditions: plain residues with an end cap or a label only (N-terminal biotin on a linker: ado-ado).
Chain of GORASP1, Q9BQQ3 (Q9BQQ3 1-208): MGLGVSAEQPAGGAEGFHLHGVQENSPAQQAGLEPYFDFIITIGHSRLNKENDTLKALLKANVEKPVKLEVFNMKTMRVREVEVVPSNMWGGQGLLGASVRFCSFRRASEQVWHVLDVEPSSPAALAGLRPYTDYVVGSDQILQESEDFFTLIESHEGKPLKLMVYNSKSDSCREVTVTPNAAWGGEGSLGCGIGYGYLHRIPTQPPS
Parameters: key: below the threshold = too weak to quantify, mostly under pKd 3.1 to 4
With PTPDLPQTRV [KLHDC7A, Q5VTJ3] the pKd was “below the threshold”. For NISYRRESAI [KCNJ4, P48050], the pKd was “below the threshold”.

What follows are binders tested against T9, GRIP1_4, Q9Y3R0 (assay: holdup assay). Conditions: plain residues with an end cap or a label only (N-terminal biotin on a linker: ado-ado).
Parameters: key: below the threshold = too weak to quantify, mostly under pKd 3.1 to 4
With PTPDLPQTRV [KLHDC7A, Q5VTJ3] the pKd was “below the threshold”. For NISYRRESAI [KCNJ4, P48050], the pKd was “below the threshold”.

What follows are binders tested against SNX27, Q96L92 (assay: holdup assay). Conditions: plain residues with an end cap or a label only (N-terminal biotin on a linker: ado-ado).
Parameters: key: below the threshold = too weak to quantify, mostly under pKd 3.1 to 4
In the case of PTPDLPQTRV [KLHDC7A, Q5VTJ3], the pKd is reported as 4.21. With NISYRRESAI [KCNJ4, P48050] the pKd was “below the threshold”.

What follows are binders tested against GRIP2_4, Q9C0E4 (assay: holdup assay). Conditions: plain residues with an end cap or a label only (N-terminal biotin on a linker: ado-ado).
Chain of GRIP2_4, Q9C0E4 (Q9C0E4 446-548): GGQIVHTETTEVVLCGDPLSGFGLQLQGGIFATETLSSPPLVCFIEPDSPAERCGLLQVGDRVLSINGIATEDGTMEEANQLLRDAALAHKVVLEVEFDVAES
Parameters: key: below the threshold = too weak to quantify, mostly under pKd 3.1 to 4
In the case of PTPDLPQTRV [KLHDC7A, Q5VTJ3], the pKd is reported as “below the threshold”. With NISYRRESAI [KCNJ4, P48050] the pKd was “below the threshold”.

The binders below were run against SCRIB_1, Q14160 (assay: holdup assay). Conditions: plain residues with an end cap or a label only (N-terminal biotin on a linker: ado-ado).
Chain of SCRIB_1, Q14160 (Q14160 718-814): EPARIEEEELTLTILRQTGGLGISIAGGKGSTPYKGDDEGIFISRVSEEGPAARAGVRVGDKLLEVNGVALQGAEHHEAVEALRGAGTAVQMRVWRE
Parameters: key: below the threshold = too weak to quantify, mostly under pKd 3.1 to 4
For PTPDLPQTRV [KLHDC7A, Q5VTJ3], the pKd was “below the threshold”. With NISYRRESAI [KCNJ4, P48050] the pKd was 3.89.

The binders below were run against T10, TIAM2, Q8IVF5 (assay: holdup assay). Conditions: plain residues with an end cap or a label only (N-terminal biotin on a linker: ado-ado).
Parameters: key: below the threshold = too weak to quantify, mostly under pKd 3.1 to 4
PTPDLPQTRV [KLHDC7A, Q5VTJ3] was tested, and the pKd was 3.86. NISYRRESAI [KCNJ4, P48050] was tested, and the pKd was 4.07.

These binders were tested against T11, DFNB31_3, Q9P202 (assay: holdup assay). Conditions: plain residues with an end cap or a label only (N-terminal biotin on a linker: ado-ado).
Parameters: key: below the threshold = too weak to quantify, mostly under pKd 3.1 to 4
Binder PTPDLPQTRV [KLHDC7A, Q5VTJ3] has a pKd of 4.1. In the case of NISYRRESAI [KCNJ4, P48050], the pKd is reported as “below the threshold”.

What follows are binders tested against DLG2_3, Q15700 (assay: holdup assay). Conditions: plain residues with an end cap or a label only (N-terminal biotin on a linker: ado-ado).
Parameters: key: below the threshold = too weak to quantify, mostly under pKd 3.1 to 4
Binder PTPDLPQTRV [KLHDC7A, Q5VTJ3] has a pKd of 3.91. With NISYRRESAI [KCNJ4, P48050] the pKd was 4.36.
